Data published in US20080312141 (published 2008).
No end group written: not given here.

T1: cathepsin G (human, UniProt P08311)
T1 chain: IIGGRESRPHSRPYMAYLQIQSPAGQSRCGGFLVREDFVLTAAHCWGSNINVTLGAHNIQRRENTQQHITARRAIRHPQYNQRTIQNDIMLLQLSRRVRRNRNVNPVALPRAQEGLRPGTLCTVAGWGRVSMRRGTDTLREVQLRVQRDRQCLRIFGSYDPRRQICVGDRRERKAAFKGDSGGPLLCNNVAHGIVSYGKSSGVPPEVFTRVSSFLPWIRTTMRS


Experiments:
cathepsin G = target: T1, cathepsin G; test: other, IFMA
hK2 = hK2 (human, UniProt P20151); test: other, IFMA
PSA [1] = target: T2, PSA (human, UniProt P07288); test: competition, IFMA with free PSA
T2 sequence (P07288 25-261): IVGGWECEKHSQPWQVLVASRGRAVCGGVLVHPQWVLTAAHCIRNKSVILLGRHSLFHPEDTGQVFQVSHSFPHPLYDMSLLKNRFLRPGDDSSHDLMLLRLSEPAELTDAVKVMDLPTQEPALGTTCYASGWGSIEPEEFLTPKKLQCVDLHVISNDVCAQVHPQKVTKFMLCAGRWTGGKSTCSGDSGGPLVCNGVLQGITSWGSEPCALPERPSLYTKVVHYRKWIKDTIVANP

trypsin = test: other, IFMA
PSA [2] = target: T2, PSA; test: other, IFMA

Sequence of hK2 (P20151 25-261): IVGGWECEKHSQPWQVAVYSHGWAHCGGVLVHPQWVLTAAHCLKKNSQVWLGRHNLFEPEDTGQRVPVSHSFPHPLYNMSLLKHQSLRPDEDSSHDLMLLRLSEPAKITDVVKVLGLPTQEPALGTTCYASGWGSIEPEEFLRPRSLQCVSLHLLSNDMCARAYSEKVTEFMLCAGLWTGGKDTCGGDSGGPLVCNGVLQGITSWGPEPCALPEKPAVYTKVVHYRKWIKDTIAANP

Binder | binding result (cathepsin G) | binding result (hK2) | IC50 (PSA [1]) | binding result (trypsin) | binding result (PSA [2])
CVAYCIEHHCWTC [GST-C-4] | no binding | no binding | 0.7 nM | no binding | 
CLSTCAQSCRISC (not fully specified (bridges); cysteine pairing not given here; also: GST fusion protein) [GST-D-1] |  |  |  |  | no binding
